Data published in US20220089727A1 (CHANGCHUN GENESCIENCE PHARMACEUTICAL, published 2022).
Where a chain is given by its changes, count along the chain named. Values belong to the binder of their own block, whether it stands above or below them.

Key:
[1] = molecular target: T1, CD47 on the surface of Jurkat cells (human, UniProt Q08722 19-323); assay: cell-based or functional assay
[2] = molecular target: T1, CD47 on the surface of Jurkat cells; assay: cell-based or functional assay; remark: listed apart in the source
[3] = molecular target: T1, CD47 on the surface of Jurkat cells; assay: flow cytometry on Jurkat cells, hybridoma supernatant, anti-mouse IgG Fc FITC
[4] = molecular target: T2, human CD47-linker peptide-hIgG1Fc (human); assay: competition ELISA: CD47-hFc coated, antibody titrated against human SIRP-his (competitor), anti-His detection
T2 construct: also called Human CD47-hFc; human CD47-hFc

[5] = molecular target: T3, human CD47 (analyte in the Biacore assay) (human, UniProt Q08722 19-139, limits assumed); assay: SPR (Biacore T200), antibody captured by anti-mouse Fc, human CD47 as analyte
T3 construct: also called human CD47 protein

[6] = molecular target: T4, human CD47ECD-linker peptide-7his (human, UniProt Q08722 19-139); assay: ELISA, hCD47-his coated at 1 µg/ml, cell culture supernatant
T4 construct: also called hCD47-his; human CD47-his

[7] = molecular target: T2, human CD47-linker peptide-hIgG1Fc; assay: competition ELISA: human CD47-hFc coated, blocked ligand human SIRP-his
[8] = molecular target: T5, monkey CD47ECD-linker peptide-7his (monkey); assay: ELISA, monkey CD47-his coated at 1 µg/ml, cell culture supernatant
T5 construct: also called Monkey CD47-his
T5 chain: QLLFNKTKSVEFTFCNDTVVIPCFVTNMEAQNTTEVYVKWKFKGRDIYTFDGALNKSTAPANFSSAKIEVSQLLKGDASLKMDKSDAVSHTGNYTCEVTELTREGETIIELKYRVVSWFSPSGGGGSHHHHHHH

B1: 059-1.20.1 (antibody, mouse IgG1, V domains shown)
VH: EVQLQQSGPELVKPGASVNMSCKASGYTFTNYFLHWVKQKPGQGLEWIGYINPYNDGTNYNENFKGKATLTSDKSSSTAYMELSSLTSEDSAVYYCAKGGWFSMDYWGQGTSVTVSS
VL: DVVMTQTPLSLPVSLGDQASISCRSSQSLVHSNGKTYLQWYLQKPGQSPKLLIYKVSNRFSGVPDRFSGSGSGTDFTLKISRVEAEDLGVYFCSQSTHVYTFGGGTKLEIK
notes: also called 059-1.20.1 purified antibody
Apoptotic rate (%) [1]: 33%
phagocytic index [2]: 43 Jurkat cells phagocytized per 100 macrophages
MFI [3]: 15300 MFI
EC50 [4]: 1.19 µM
Kd [5]: 0.0253 µM
koff [5]: 0.00548 s⁻¹
kon [5]: 217000 M⁻¹ s⁻¹
OD450 [6]: 4 OD450
IC50 (read off the curve) [7]: ~1 mg/L
OD450 [8]: 4 OD450

B3: B6H12 (commercialized CD47 antibody, purchased from Abcam, catalog No. ab3283) (antibody)
chain: EVQLVESGGDLVKPGGSLKLSCAASGFTFSGYGMSWVRQTPDKRLEWVATITSGGTYTYYPDSVKGRFTISRDNAKNTLYLQIDSLKSEDTAIYFCARSLAGNAMDYWGQGTSVTVSSGGGGSGGGGSGGGGSDIVMTQSPATLSVTPGDRVSLSCRASQTISDYLHWYQQKSHESPRLLIKFASQSISGIPSRFSGSGSGSDFTLSINSVEPEDVGVYYCQNGHGFPRTFGGGTKLEIK
Apoptotic rate (%) [1]: 8%
phagocytic index [2]: 20 Jurkat cells phagocytized per 100 macrophages
Kd [5]: 0.0275 µM
koff [5]: 0.00364 s⁻¹
kon [5]: 132000 M⁻¹ s⁻¹
IC50 (read off the curve) [7]: ~1 mg/L

B4: 059-1.30.1 (antibody, mouse IgG1, V domains shown)
VH: EVQLQQSGPELVKPGASVRMSCKASGYTFTNYVMHWVKQKPGQGLEWIGYINPYNDGTKYSEKFKGKATLTSDKSSITAYMELSSLTSEDSAVYYCAKGGLFTFDYWGQGTTLTVSS
VL: DVVMTQTPLSLPVSLGDQASISCRSSQSLVHSKGNTYLHWYLQKPGQSPKLLIYRVSNRFSGVPDRFSGSGSGTDFTLKISRVEAEDLGVYFCSQSTHVPFTFGSGTKLEIK
notes: also called 059-1.30.1 purified antibody
Apoptotic rate (%) [1]: 48%
phagocytic index [2]: 70 Jurkat cells phagocytized per 100 macrophages
MFI [3]: 9950 MFI
EC50 [4]: 1.03 µM
Kd [5]: 0.0301 µM
koff [5]: 0.0128 s⁻¹
kon [5]: 424000 M⁻¹ s⁻¹
OD450 [6]: 4 OD450
IC50 (read off the curve) [7]: ~1 mg/L
OD450 [8]: 4 OD450

B5: 059-1.43.1 (antibody, mouse IgG1, V domains shown)
VH: QVQLQQSGAELVRPGASVTLSCKASGYTFTDYEMHWVKQTPVHGLEWIGAIDPETGGTAYNQKFKGKATLTADKSSSTAYMELRSLTSEDSAVYYCTRGTPYAMDYWGQGTSVTVSS
VL: B4 VL with K33N, R55K, F101W, S105G
notes: also called 059-1.43.1 purified antibody
Apoptotic rate (%) [1]: 37%
phagocytic index [2]: 79 Jurkat cells phagocytized per 100 macrophages
MFI [3]: 18500 MFI
EC50 [4]: 0.85 µM
Kd [5]: 0.0283 µM
koff [5]: 0.00666 s⁻¹
kon [5]: 236000 M⁻¹ s⁻¹
OD450 [6]: 4 OD450
IC50 (read off the curve) [7]: ~0.9 mg/L
OD450 [8]: 4 OD450

B7: 059-1.11.1 (antibody, mouse IgM, V domains shown)
VH: B5 VH
VL: B4 VL with K33N, R55K, D65E, F101W, S105G
notes: Mouse hybridoma antibody; the subclass paragraph gives the light chain type as kappa; also called 059-1.11.1 purified antibody
MFI [3]: 6630 MFI
EC50 [4]: 2.34 µM
Kd [5]: 0.0155 µM
koff [5]: 0.00402 s⁻¹
kon [5]: 260000 M⁻¹ s⁻¹
OD450 [6]: 3.67 OD450
OD450 [8]: 4 OD450

The next lines start with the values.

Apoptotic rate (%) [1]: 24%
phagocytic index [2]: 74 Jurkat cells phagocytized per 100 macrophages
MFI [3]: 9550 MFI
EC50 [4]: 1.03 µM
Kd [5]: 0.0142 µM
koff [5]: 0.00364 s⁻¹
kon [5]: 256000 M⁻¹ s⁻¹
OD450 [6]: 4 OD450
IC50 (read off the curve) [7]: ~1 mg/L
OD450 [8]: 3.9 OD450
B2: 059-1.82.1 (antibody, mouse IgG3, V domains shown)
VH: B1 VH with N19K, F33V, L34M, N63K
VL: B1 VL

MFI [3]: 144 MFI
Kd [5]: 0.0273 µM
koff [5]: 0.0101 s⁻¹
kon [5]: 370000 M⁻¹ s⁻¹
OD450 [6]: 0.771 OD450
OD450 [8]: 0.634 OD450
B6: 059-1.51.2 (antibody, mouse IgM, V domains shown)
VH: EVQLQQSGPELVKPGASVKMSCKASGYTFTNYVMHWMKQKPGQGLEWIGYINPYNDDTKYNEKFKDRATLTSDKSSSTAYMELSSLTSEDSAVYYCAKGGYYSMDYWGQGTSVTVSS
VL: B4 VL with R55K
notes: Mouse hybridoma antibody; light chain type kappa

MFI [3]: 216 MFI
Kd [5]: 0.044 µM
koff [5]: 0.0069 s⁻¹
kon [5]: 157000 M⁻¹ s⁻¹
OD450 [6]: 0.81 OD450
OD450 [8]: 0.617 OD450
B8: 059-1.100.5 (antibody, mouse IgM, V domains shown)
VH: B5 VH with K63N
VL: B4 VL with K33N, R55K, F101W, S105G
notes: Mouse hybridoma antibody; light chain type kappa; also called 059-1.100.5 purified antibody
